Among the data in patent publication US20240350597A1, “PROTEASE INHIBITORS” (University College Dublin, priority 2023, published 2024) are CatL inhibition (residual activity on Z-FR-AMC after 2 min incubation with serpin, 1:5 protease:serpin) values, retold here.

For the experiment, the target named is Cathepsin L (UniProt P07711). Put plainly: cell-based or functional assay.

Substance “Wild Type SerpinB3 (from UniProt P29508 1-390)” had a CatL inhibition (residual activity on Z-FR-AMC after 2 min incubation with serpin, 1:5 protease:serpin) of 95%.
